This series in a line: collision cross section of modified peptide (TIMS, N2, iRT-aligned); higher = larger / more extended gas-phase ion. Summed up:
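Values are averages of 1–3 technical replicates of the most abundant feature for each charge state. Collision cross section was obtained from the Mason-Schamp equation after 1/K0 calibration with three reference ions and run-wise alignment to the median iRT peptide deviation. Synthetic peptide pools (iRT standard spiked 1:40) were separated on a 120-min nanoflow C18 gradient at 60 °C, analysed on a timsTOF Pro/HT (dda-PASEF, nitrogen, ~2.4 mbar) and identified with MaxQuant.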

Where [1] appears, read: charge state: 2, modification: Biotin.
The mark [2] stands for this setting: charge state: 2, modification: hydroxyisobutyryl.
The mark [3] stands for this setting: charge state: 3, modification: hydroxyisobutyryl.
Setting [4] is: charge state: 2, modification: HexNAc (ST).
Setting [5] is: charge state: 2, modification: Malonyl.
Where [6] appears, read: charge state: 2, modification: Butyryl.
The mark [7] stands for this setting: charge state: 2, modification: Nitro (Y).
Setting [8] is: charge state: 2, modification: Phospho (Y).
[9] abbreviates: charge state: 2, modification: Citrullination (R).
The mark [10] stands for this setting: charge state: 3, modification: Citrullination (R).
[11] abbreviates: charge state: 3, modification: Hydroxyproline.
Where [12] appears, read: charge state: 3, modification: Methyl (R).
[13] abbreviates: charge state: 2, modification: Methyl (K).
Where [14] appears, read: charge state: 3, modification: Methyl (K).
[15] abbreviates: charge state: 2, modification: Hydroxyproline.
The mark [16] stands for this setting: charge state: 2, modification: GlyGly (K).
[17] abbreviates: charge state: 3, modification: GlyGly (K).
[18] abbreviates: charge state: 2, modification: Formyl.
Setting [19] is: charge state: 2, modification: Dimethyl (K).
[20] abbreviates: charge state: 3, modification: Dimethyl (K).

± gives the standard deviation.

For the substance “IPAASAAAMNLASAR [_IPAAS(HexNAc (ST))AAAMNLASAR_]”, the collision cross section (charge state: 3, modification: HexNAc (ST)) stood at 504.78 ± 1.3 Å².

With VGEFSGANKEK [_VGEFSGANK(Biotin)EK_], the collision cross section under setting [1] was 386.08 Å².

As for “VTLEVGKVIQQGR [_VTLEVGK(Trimethyl (K))VIQQGR_]”, the collision cross section turned out to be 428.78 ± 1 Å² (charge state: 2, modification: Trimethyl (K)) and 471.08 ± 1.8 Å² (charge state: 3, modification: Trimethyl (K)).

Take “IVFSGNLFQHQEDSKK [_IVFSGNLFQHQEDSK(hydroxyisobutyryl)K_]”: the collision cross section runs as follows: under setting [2], 503.66 ± 0.71 Å²; under setting [3], 534.25 ± 1.1 Å².

In the case of “AAQASDLEKIHLDEK [_AAQASDLEK(hydroxyisobutyryl)IHLDEK_]”, the collision cross section was found to be 466.52 ± 0.88 Å² under setting [2] and 501.4 ± 2.8 Å² under setting [3].

“QGNAVTLGDYYQGR [_QGNAVT(HexNAc (ST))LGDYYQGR_]” registered a collision cross section under setting [4] of 432.99 ± 0.62 Å².

In turn, “DSLGVSFPEELACK [_DSLGVS(HexNAc (ST))FPEELACK_]” yielded a collision cross section under setting [4] of 437.05 Å².

The substance “VYIASSSGSTAIKK [_VYIASSSGSTAIK(Malonyl)K_]” displayed a collision cross section under setting [5] of 409.24 ± 0.039 Å².

On to “VLDSGAPIKIPVGPETLGR [_VLDSGAPIK(hydroxyisobutyryl)IPVGPETLGR_]”, for which the collision cross section is reported as 472.45 ± 0.87 Å² under setting [2] and 522.22 ± 1.2 Å² under setting [3].

ITASLCDLKSR [_ITASLCDLK(Butyryl)SR_]: the collision cross section under setting [6] is reported as 390.25 Å².

Under setting [7], YILIPASQQPK [_Y(Nitro (Y))ILIPASQQPK_] gave a collision cross section of 382.12 ± 0.17 Å².

For “ITESVAETAQTIKK [_ITESVAETAQTIK(Succinyl)K_]”, the collision cross section by setting is: (charge state: 2, modification: Succinyl) 424.69 ± 1.1 Å²; (charge state: 3, modification: Succinyl) 512.63 ± 2.6 Å².

In the case of “ALYETELADAR [_ALY(Phospho (Y))ETELADAR_]”, under setting [8], the collision cross section is given as 383.83 ± 0.063 Å².

Take “FSHSVQNSERGK [_FSHSVQNSER(Citrullination (R))GK_]”: the collision cross section reads like this: under setting [9], 390.38 ± 0.44 Å²; under setting [10], 441.33 ± 1.8 Å².

“PGSPGPPGSPGPR [_PGSP(Hydroxyproline)GPPGSPGPR_]” returned a collision cross section under setting [11] of 422.04 ± 4.8 Å².

For “GRGAAAAGGPQR [_GR(Methyl (R))GAAAAGGPQR_]”, the collision cross section worked out at 338.98 ± 2.7 Å² (charge state: 2, modification: Methyl (R)) and 434.02 ± 3.5 Å² under setting [12].

The substance “DYSAPVNFISAGLKK [_DYSAPVNFISAGLK(Methyl (K))K_]” displayed a collision cross section under setting [13] of 451.15 ± 3.1 Å² and a collision cross section under setting [14] of 513.65 ± 3.5 Å².

For the substance “TQAEGQGQGRGLGLVSAVR [_TQAEGQGQGR(Methyl (R))GLGLVSAVR_]”, the collision cross section under setting [12] was determined as 510.91 ± 2 Å².

As for SYHLQIVTK [_SY(Nitro (Y))HLQIVTK_], the collision cross section under setting [7] amounted to 345.14 ± 0.74 Å² and the collision cross section (charge state: 3, modification: Nitro (Y)) was determined as 449.3 ± 1.2 Å².

Consider “AAGQPYEQHAK [_AAGQPY(Phospho (Y))EQHAK_]”, for which the collision cross section is listed as 368.83 ± 10 Å² under setting [8] and 436.55 Å² (charge state: 3, modification: Phospho (Y)).

YTCSFCGK [_Y(Phospho (Y))TCSFCGK_]: the collision cross section under setting [8] was found to be 336.46 ± 0.067 Å².

Take GGRGTPGK [_GGRGTP(Hydroxyproline)GK_]: the collision cross section under setting [15] is on record as 291.37 ± 3.4 Å².

As for TLQKQSVVYGGK [_TLQK(Crotonyl)QSVVYGGK_], for the setting “charge state: 2, modification: Crotonyl”, the collision cross section is 396.64 ± 0.8 Å².

As to “GEVGAGAGPGAQAGPSAKR [_GEVGAGAGPGAQAGPSAK(Biotin)R_]”, the collision cross section under setting [1] stood at 440.5 ± 1.2 Å² and the collision cross section (charge state: 3, modification: Biotin) came to 470.58 ± 2.6 Å².

For “IDLPAENSNSETIIITGKR [_IDLPAENSNSETIIITGK(GlyGly (K))R_]”, the collision cross section came out at 493.9 ± 1.8 Å² under setting [16] and 582.79 ± 0.38 Å² under setting [17].

Take “GTISAPGKVVTAAAQAK [_GTISAPGK(Malonyl)VVTAAAQAK_]”: the collision cross section came out at 432.93 ± 5.1 Å² under setting [5] and 519.93 ± 1.9 Å² (charge state: 3, modification: Malonyl).

Under setting [18], PSVSTKLISK [_PSVSTK(Formyl)LISK_] yielded a collision cross section of 346.92 ± 1.1 Å².

For the substance DHLSDKESK [_DHLSDK(Methyl (K))ESK_], the collision cross section came to 345.4 ± 1.5 Å² under setting [13] and 413.72 ± 4.7 Å² under setting [14].

With LSITGTYDLK [_LSITGTY(Phospho (Y))DLK_], the collision cross section under setting [8] was determined as 381.43 ± 0.65 Å².

In turn, “DKALPLEAEVAPVK [_DK(Biotin)ALPLEAEVAPVK_]” came in with a collision cross section under setting [1] of 435.06 Å².

With “VGLQVVAVKAPGFGDNR [_VGLQVVAVK(Dimethyl (K))APGFGDNR_]”, the collision cross section under setting [19] worked out at 465.4 ± 1.7 Å² and the collision cross section under setting [20] is 490.92 ± 1.2 Å².

With LLEEEDSKLK [_LLEEEDSK(Butyryl)LK_], under setting [6], the collision cross section is listed as 385.99 ± 0.85 Å².

Consider “DYVSQFEGSALGK [_DY(Phospho (Y))VSQFEGSALGK_]”, for which the collision cross section under setting [8] amounted to 391.59 ± 0.64 Å².

Consider “VTLEVGKVIQQGR [_VTLEVGK(GlyGly (K))VIQQGR_]”, for which the collision cross section by setting is: under setting [16], 431.32 ± 0.96 Å²; under setting [17], 486.06 ± 1.6 Å².

As to “SRGAIISQYYNR [_SR(Methyl (R))GAIISQYYNR_]”, the collision cross section under setting [12] was determined as 476.32 ± 1.6 Å².

Take “IISSIEQKEENK [_IISSIEQK(Dimethyl (K))EENK_]”: the collision cross section is 410.65 ± 1.1 Å² under setting [19] and 464.23 ± 1.4 Å² under setting [20].

“APPIDRSILPTAPR [_APPIDR(Methyl (R))SILPTAPR_]” gave a collision cross section under setting [12] of 489.12 ± 2.5 Å².

With “GRGVGSPEPGPTAPYLGR [_GR(Citrullination (R))GVGSPEPGPTAPYLGR_]”, the collision cross section is 422.7 ± 0.55 Å² under setting [9] and 509.44 ± 39 Å² under setting [10].

DFDTALKHYDK [_DFDTALK(Malonyl)HYDK_] gave a collision cross section under setting [5] of 405.79 ± 0.59 Å².

In the case of “DSSPTTNSKLSALQR [_DSSPTTNSK(GlyGly (K))LSALQR_]”, the collision cross section runs as follows: under setting [16], 434.5 ± 1.6 Å²; under setting [17], 501.52 ± 0.79 Å².

GPPGPPGK [_GPPGP(Hydroxyproline)PGK_] displayed a collision cross section under setting [15] of 274.06 ± 0.78 Å².

In turn, LELAQYR [_LELAQY(Phospho (Y))R_] gave a collision cross section under setting [8] of 329.12 ± 0.75 Å².

“LQDVSGQLSSSKK [_LQDVSGQLSSSK(Dimethyl (K))K_]”: the collision cross section reads like this: under setting [19], 407.51 ± 1.1 Å²; under setting [20], 466.01 ± 2.4 Å².

SDDESSQKDIK [_SDDESSQK(Butyryl)DIK_]: the collision cross section under setting [6] is on record as 378.95 ± 0.72 Å².

In the case of “DAEAAEATAEGALKAEK [_DAEAAEATAEGALK(Butyryl)AEK_]”, the collision cross section reads like this: under setting [6], 461.9 ± 22 Å²; (charge state: 3, modification: Butyryl) 544.71 ± 2 Å².

With “AGPNASIISLKSDK [_AGPNASIISLK(Formyl)SDK_]”, the collision cross section under setting [18] is 404.66 ± 0.43 Å².

As to “GEQGEPGAPGIRTGIQGLK [_GEQGEPGAP(Hydroxyproline)GIRTGIQGLK_]”, the collision cross section under setting [15] is 450.73 ± 0.4 Å² and the collision cross section under setting [11] is 502.77 ± 1.3 Å².

Regarding “IPQEKCILQTDVK [_IPQEK(hydroxyisobutyryl)CILQTDVK_]”, the collision cross section under setting [2] came to 438.91 ± 0.79 Å².

For “LEKTIDDLEEK [_LEK(Gluratylation)TIDDLEEK_]”, for the setting “charge state: 2, modification: Glutarylation”, the collision cross section stood at 410.17 ± 1.1 Å².
